In patent publication US7910550B2, “Human kunitz-type inhibitor with enhanced antifibrinolytic activity” (STC.UNM, priority 2004, dated 2011):

Columns and labels:
[1] = tested on: HT-1080 cells; assay: FACS analysis of apoptosis with annexin V/propidium iodide; type: cell-based, human; conditions: 1 μM, 48 hours; for cells in a late apoptotic stage (annexin V and PI positive): vehicle 4%; for early apoptotic cells (annexin V-FITC positive): vehicle 16%
Protocol: All cell lines were maintained in Dulbecco's minimal essential medium (DMEM), supplemented with heat-inactivated 10% fetal bovine serum and penicillin-streptomycin. The cells were cultured either in 6- or 12-well plates at 37° C. in a humidified atmosphere containing 6% CO2. At confluence, the cells were treated with fresh medium containing either wild-type TFPI-2, R24K KD1, or R24Q KD1. Cells were treated in duplicate with purified proteins at concentrations ranging from 0.5 μM to 10 μM for different time intervals. One set were also treated with PBS to serve as a control. The Limulus Amebocyte Lysate (LAL) assay was performed on each protein preparation to determine the presence of any endotoxin/LPS, and only trace amounts of endotoxin (<0.5 ng/L) were detected in each protein preparation.
To assess the degree of apoptosis between the various treatments, cells were grown to confluence in 6 well plates and treated with either proteins or vehicle as described earlier. For annexin V staining, approximately 1.2×10^6 cells were harvested with PBS containing 1 mM EDTA and washed twice gently with cold PBS. The cells were suspended in 100 μl of cold binding buffer (10 mM Hepes (pH 7.4), 140 mM NaCl, 2.5 mM CaCl2), and subsequently incubated at room temperature in the dark for 25 minutes with 5 μl of FITC-conjugated annexin V and 10 μl of propidium iodide (50 μg/ml stock). The cells were then washed in 500 μl of binding buffer to remove unbound reagents, centrifuged at 900×g for 5 minutes, and resuspended in 1 ml of cold binding buffer. The labeled cells were then analyzed using a FACSCALIBUR flow cytometer (Becton Dickinson, San Jose, Calif.) and the data analyzed using […] software.

[2] = tested on: HT-1080 cells; assay: DNA fragmentation analysis by agarose gel electrophoresis; type: cell-based, human; conditions: 48 hours
Protocol: Cells were grown to confluence in 6-well plates and treated with either wild-type TFPI-2 or R24K KD1 at the same concentrations described above. After incubation for either 24 or 48 hours at 37° C., the cells were harvested and washed twice with PBS. The DNA was then extracted using the DNEASY tissue kit (Qiagen, Valencia, Calif.) accordingly to the manufacturer's instructions. DNA extracts were electrophoresed in 1.8% agarose gels at 100 V for 45 minutes and visualized with ethidium bromide staining under UV illumination.

[3] = tested on: HT-1080 cells; assay: Western blot of cell extracts (Bax, Bcl-2, cleaved caspase-9, cleaved caspase-3); type: cell-based, human; conditions: 1 μM, 48 hours; for activated caspase 9 and activated caspase 3 (immunoblot): vs vehicle-treated cells
Protocol: Cell extracts were analyzed for the pro-apoptotic Bax, the anti-apoptotic Bcl-2, cleaved caspase-9 and cleaved caspase-3 by immunoblotting techniques. Approximately, 1×10^6 HT-1080 cells were grown to confluence in 6-well plates and treated with recombinant proteins and vehicle as described above. Both floating and adherent cells were harvested and washed twice with cold PBS. The cells were lysed by sonication in 500 μl of lysis buffer containing of 125 mM Tris-HCl (pH 6.8), 2% SDS, 10% glycerol, 50 mM sodium phosphate, 1 mM PMSF and protease inhibitor cocktail. The lysate was kept on ice for about 10 minutes, centrifuged for 15 minutes at 10,000×g at 4° C., and the supernatant recovered. The supernatants were boiled for 3 min and 50 μg of lysate protein subjected to SDS-PAGE in 4-20% polyacrylamide gradient gels. […] The nitrocellulose membranes were then probed with specific antibodies dissolved in fresh blocking buffer, and immunoreactive proteins were identified using HRP-conjugated secondary antibodies and a chemiluminescent reagent system essentially as described in Kempiah et al., Mol. Cancer, 6:20, 2007. Separate blots were treated with mouse monoclonal anti-α-tubulin antibody in order to verify equal loading of lysate proteins onto the gel.

[4] = tested on: HT-1080 fibrosarcoma xenografts; type: in vivo, SCID mice
Protocol: The relative mRNA abundance in the snap-frozen tumor xenograft samples was assessed by oligonucleotide-based microarray analysis using an Affymetrix […] Human Genome U133 set (Affymetrix, Inc., Santa Clara, Calif.). This microarray consists of two array units of over one million unique oligonucleotide features covering over 39,000 transcript variants that represent 33,000 of the best characterized human genes. Additional information regarding these chips is available on-line at the Affymetrix, Inc. website. Biotinylated cRNA probe preparation, processing, hybridization and normalization were performed as described in the Affymetrix […] Expression Analysis Manual. Florescence images were captured using a gene array scanner (Affymetrix, Inc., Santa Clara, Calif.) and expression analysis was performed using GeneSpring v5.1 software. The wild-type TFPI-2 transfected (WT) tumor ratio of medians was normalized with that obtained from mock-transfected (MT) tumors.

[5] = TFPI-2 expressing tumors over mock-transfected tumors
[6] = human fibrosarcomas secreting wild-type human TFPI-2

B1: TFPI-2: Human tissue factor pathway inhibitor-2, 213 amino acid polypeptide with three tandem Kunitz-type domains (SEQ ID NO:1) (protein, listed as Homo sapiens)
chain: DAAQEPTGNNAEICLLPLDYGPCRALLLRYYYDRYTQSCRQFLYGGCEGNANNFYTWEACDDACWRIEKVPKVCRLQVSVDDQCEGSTEKYFFNLSSMTCEKFFSGGCHRNRIENRFPDEATCMGFCAPKKIPSFCYSPKDEGLCSANVTRYYFNPRYRTCDAFTYTGCGGNDNNFVSREDCKRACAKALKKKKKMPKLRFASRIRKIRKKQF
[1]
  cells in a late apoptotic stage (annexin V and PI positive): ~43%
  early apoptotic cells (annexin V-FITC positive): 55%
[2]
  DNA fragmentation: ladder pattern typically associated with DNA fragmentation and apoptosis
[3]
  Bax and Bcl-2 protein expression (immunoblot): increased expression of the pro-apoptotic protein, Bax, and decreased expression of the anti-apoptotic protein, Bcl-2
  activated caspase 9 and activated caspase 3 (immunoblot): activation of caspase-9 and caspase-3
[4]
  Fold Change mRNA: Erythropoietin-producing hepatocyte kinase, EphB6 (NM_004445): −2.38 fold
[4]; [5]
  Fold Change mRNA: ADAM-TS2 (NM_021599): −4.62 fold
  Fold Change mRNA: Alpha 1 chain of Type XII Collagen (AA669336): +7.26 fold
  Fold Change mRNA: Aquaporin 1 (NM_000385): +2.30 fold
  Fold Change mRNA: Biglycan (BC002416): −2.29 fold
  Fold Change mRNA: Bone morphogenetic protein 4 (D30751): +2.79 fold
  Fold Change mRNA: COUP-transcription factor (X16155): −2.79 fold
  Fold Change mRNA: CUB domain-containing protein 1 (CDCP1) (NM_022842): −18.70 fold
  Fold Change mRNA: Cell death regulator Aven (NM_020371): −2.11 fold
  Fold Change mRNA: Chondroitin sulfate proteoglycan 2 (versican) (D32039): −2.13 fold
  Fold Change mRNA: Collagen, type 1, alpha 1 (NM_000088): +3.51 fold
  Fold Change mRNA: Cytidine deaminase (NM_001785): +35.30 fold
  Fold Change mRNA: EEF1A2, Eukaryotic translation elongation factor 1 alpha 2 (NM_001958): +6.85 fold
  Fold Change mRNA: EGF-TM7-latrophilin-related protein (NM_022159): −2.92 fold
  Fold Change mRNA: EIF2Ak1, protein kinase, PKR (NM_002759): +2.51 fold
  Fold Change mRNA: Endothelin receptor type A (AU118882, NM_001957): −2.90 fold
  Fold Change mRNA: FLT, VEGFR1, Fms-related tyrosine kinase receptor (NM_002019): −2.24 fold
  Fold Change mRNA: Fibronectin 1 (AJ276395): −3.80 fold
  Fold Change mRNA: Formin like (FRL) (NM_005892): −2.14 fold
  Fold Change mRNA: Helicase, Basic leucine zipper transcription factor-1 (NM_001186): −2.11 fold
  Fold Change mRNA: Hemoglobin, epsilon 1, oxygen transport (NM_005330): −7.63 fold
  Fold Change mRNA: Interleukin-8 (IL-8, C—X—CL8) (NM_000584): −6.99 fold
  Fold Change mRNA: Junction plakoglobin (NM_021991): −2.21 fold
  Fold Change mRNA: LIM domain binding 2 (NM_001290): −5.20 fold
  Fold Change mRNA: LIM homeobox protein 6 (NM_014368): +2.91 fold
  Fold Change mRNA: Ligase III, DNA (NM_013975): +2.04 fold
  Fold Change mRNA: Lymphocyte antigen 75, gp200-MR6 (NM_002349): +14.32 fold
  Fold Change mRNA: MAGE-A1, Melanoma antigen family A1 (NM_004988): −2.95 fold
  Fold Change mRNA: Metastasis suppressor gene (NM_014751): +2.06 fold
  Fold Change mRNA: N-Cadherin (M34064): −2.13 fold
  Fold Change mRNA: Neuropeptide Y receptor (L01639): −8.03 fold
  Fold Change mRNA: Nox 4, NADPH oxidase 4 (NM_016931): −2.46 fold
  Fold Change mRNA: Oligophrenin 1 (NM_002547): +2.95 fold
  Fold Change mRNA: PBX-2, Pre-B cell leukemia transcription factor-2 (NM_002586): −2.75 fold
  Fold Change mRNA: Phenylalanine-tRNA synthetase (NM_006567): +2.11 fold
  Fold Change mRNA: Phorbolin-like protein MDS019 (NM_021822): +2.80 fold
  Fold Change mRNA: Protein tyrosine phosphatase, receptor type, U (U71075): −2.48 fold
  Fold Change mRNA: Reversion-inducing-cysteine-rich protein with kazal motif (RECK) (NM_021111): +2.64 fold
  Fold Change mRNA: S100 calcium-binding protein A4 (NM_002961): +2.79 fold
  Fold Change mRNA: Tumor necrosis factor, alpha-induced protein 2 (NM_006291): +2.98 fold
  Fold Change mRNA: Tumor protein D52-like 1 (NM_003287): +2.10 fold
  Fold Change mRNA: Vascular endothelial growth factor C (U58111): −2.41 fold
  Fold Change mRNA: Zinc finger protein 22 (KOX 15) (NM_006963, AA744771): +29.27 fold
  Fold Change mRNA: Zinc finger protein 185 (LIM domain) (NM_006291): +5.05 fold
  Fold Change mRNA: dermatopontin precursor (AI146848): +2.87 fold
  Fold Change mRNA: enigma (LIM domain protein) (AW206786): −2.32 fold
  Fold Change mRNA: fibrillin 1 precursor (AI264196): −2.48 fold
  Fold Change mRNA: platelet derived growth factor alpha polypeptide (NM_002607): +2.53 fold
  Fold Change mRNA: protein tyrosine kinase 7 (NM_002821): +2.33 fold
  Fold Change mRNA: sortilin 1 (SORTI) (BE742268): −4.21 fold
  Fold Change mRNA: thrombospondin 1 precursor (AI812030): −3.39 fold
  Fold Change mRNA: voltage-gated potassium channel activity (AF052169): +2.48 fold
[4]; TFPI-2 expressing tumors over mock-transfected tumors, first of two values
  Fold Change mRNA: Chemokine (C—X—C motif), receptor 4 (fusin) (AF348491): −4.21 fold
[4]; TFPI-2 expressing tumors over mock-transfected tumors, second of two values
  Fold Change mRNA: Chemokine (C—X—C motif), receptor 4 (fusin) (AJ224869): −27.40 fold
[4]; [6]
  IL-8 down regulated: 6.99 fold
  VEGF-C down regulated: 2.41 fold
  VEGF-R1 (FLT1) down regulated: 2.24 fold

B2: R24K KD1: KD1 with lysine in place of arginine at position 24 (SEQ ID NO:3) (protein)
chain: DAAQEPTGNNAEICLLPLDYGPCKALLLRYYYDRYTQSCRQFLYGGCEGNANNFYTWEACDDACWRIEKVPKV
modifications: mutated active domain
[1]
  cells in a late apoptotic stage (annexin V and PI positive): ~58%
  early apoptotic cells (annexin V-FITC positive): 41%
[2]
  DNA fragmentation: ladder pattern typically associated with DNA fragmentation and apoptosis
[3]
  Bax and Bcl-2 protein expression (immunoblot): increased expression of the pro-apoptotic protein, Bax, and decreased expression of the anti-apoptotic protein, Bcl-2
  activated caspase 9 and activated caspase 3 (immunoblot): activation of caspase-9 and caspase-3
